Publication PMC5750218, “Protein-inspired antibiotics active against vancomycin- and daptomycin-resistant bacteria” (Nature Communications, 2018)
Values after ≈ are worked out from the molar mass of the structure shown. Like-named read-outs stand apart in the source and are kept apart here.

Experiments:
Haemolysis assay = assay type: cell-based; settings: human, whole blood
[1] = 37 °C, 20 µM
Experimental: (§1) Briefly, test compounds (20 μM) were prepared from a 0.2 mM H2O stock solution (40 μL in 400 μL assay volume) except eucatropine, which was 300 μg mL^−1 in 100% DMSO (10 μL in 400 μL assay volume equivalent to 23 μM). The precipitating solution was prepared by adding 5 μL of 10 mM carbutamide in DMSO to 100 mL acetonitrile (final concentration: 135.5 ng mL^−1 or 0.5 μM carbutamide). The human plasma sample (pooled normal human plasma sodium heparin anticoagulant, 2 µL, Cat No.: [sequence], BioReclamation) and phosphate-buffer saline (PBS, pH 7.4 isotonic) were pre-heated at 37 °C for 30 min. 40 μL of test compounds (0.2 mM) were added to protein-low binding Eppendorf tubes, 160 μL of buffer was added, and the mixture was vortexed. For eucatropine, 10 μL of eucatropine (300 μg mL^−1) was added to a protein-low binding Eppendorf tube, 190 μL of buffer was added, and the mixture was vortexed. In each case, 200 μL of plasma was added and the resultant mixture vortexed. For the initial time point (reaction time t = 0 h), 50 μL of sample was immediately transferred into a protein-low binding Eppendorf tube and quenched with 150 μL of the ice-cold precipitating solution, followed by vortexing and subsequent storage at 4 °C. For the remaining time points, the plasma solution was incubated and shaken (150 rpm) at 37 °C. 50 μL aliquots were collected at time points of 0, 1, 3, 6 and 24 h and quenched with 150 μL the ice-cold precipitating solution. All samples were placed in a 4 °C fridge for 30 min then centrifuged at 14,000 × g for 8 min at 4 °C. The supernatant (100 μL) was transferred to a glass vial insert and stored at 4 °C until LC-MS/MS analysis. The percentage of test compounds remaining at the individual time points relative to sample at time point 0 h were reported.

in vitro = settings: human, 50% human plasma (pooled, sodium heparin) in PBS, pH 7.4
Experimental: as §1

[2] = system: Bacillus subtilis ATCC 6633; experiment: microbe, parasite or virus in culture; assay type: cell-based
[3] = system: Methicillin-sensitive S. aureus ATCC 29213; experiment: microbe, parasite or virus in culture; assay type: cell-based, Staphylococcus aureus
Experimental: Antimicrobial activity of compounds was tested against a number of bacterial strains by broth microdilution (BMD) assay with MIC determination, including S. aureus (MSSA ATCC® 29213™, MRSA ATCC® 43300™, VISA NARSA NRS1, VISA NARSA NRS4), Streptococcus pneumoniae (MDR ATCC® 700677™) and Enterococcus faecium (MDR VanA ATCC® 51559™). ATCC strains were sourced from the American Type Culture Collection and NRS strains from NARSA (Network on Antimicrobial Resistance in S. aureus) via BEI Resources (www.beiresources.org). All compounds were prepared to 160 µg mL^−1 solution in water from a stock solution of 1 mM concentration.
[…] […] Standards ranged from 64 to 0.03 µg mL^−1 and compounds from 8 to 0.003 µg mL^−1 with final assay volumes of 100 µL per well. Gram-positive bacteria were cultured in Mueller Hinton broth (MHB) (Bactolaboratories, Cat. no. 211443) at 37 °C overnight. A sample of each culture was then diluted 40-fold in fresh MHB and incubated at 37 °C for 2–3 h. The resultant mid-log phase cultures were added to the compound-containing 96-well plates to give a final cell density of 5 × 10^5 colony forming unit (CFU) mL^−1. All the plates were covered and incubated at 37 °C for 24 h. MICs were the lowest concentration showing no visible growth.

[4] = system: S. pneumoniae ATCC 700677 MDR; experiment: microbe, parasite or virus in culture; assay type: cell-based, Streptococcus pneumoniae
Experimental: The compounds, along with standard antibiotics were serially diluted twofold across the wells of 96-well non-binding surface (NBS) polystyrene plates (Corning 3641). […] Standards ranged from 64 to 0.03 µg mL^−1 and compounds from 8 to 0.003 µg mL^−1 with final assay volumes of 100 µL per well. Gram-positive bacteria were cultured in Mueller Hinton broth (MHB) (Bactolaboratories, Cat. no. 211443) at 37 °C overnight. A sample of each culture was then diluted 40-fold in fresh MHB and incubated at 37 °C for 2–3 h. The resultant mid-log phase cultures were added to the compound-containing 96-well plates to give a final cell density of 5 × 10^5 colony forming unit (CFU) mL^−1. All the plates were covered and incubated at 37 °C for 24 h. MICs were the lowest concentration showing no visible growth.

[5] = In vivo pharmacokinetics in mice; settings: mouse; for level at […]: 0.250 h; for level at 0.5 h: 0.500 h; for MRT inf: read-out: MRT0-inf; for MRT last: read-out: MRT0-last
Experimental: Performed by WuXi AppTec (Shanghai) Co., Ltd. Seven to 9-week-old male CD1 mice (SLAC Laboratory Animal Co. Ltd., Shanghai, China) weighing 25–35 g were acclimated for approximate 3 days before being used in the study. Animals are group housed during acclimation and in-life study in compliance with the National Research Council 'Guide for the Care and Use of Laboratory Animals.' The animal room environment is controlled (target conditions: temperature 18 to 26 °C, relative humidity 30–70%, 12 h artificial light and 12 h dark) with temperature and relative humidity monitored daily. Animals were deprived of food for approximately 16 h before formulation administration then allowed access to Certified Rodent Diet (Catalogue # M-01F, Shanghai SLAC Laboratory Animal Co. Ltd.) ad libitum 4 h post dosing. Water was autoclaved before being provided to the animals ad libitum. Formulations of compounds were prepared on the morning of the dosing day. The formulation for the IV group was filtered with filter of 0.22 μm before being dosed to animals. After dose formulation preparation, duplicate 50 μL aliquots were removed from each dose formulation for use in dose validation. For each compound studied, three mice were dosed intravenously (IV) administered to each animal via tail vein per facility SOPs using test article formulated in deionised water at 1 mg mL^−1 with a dose volume of 2 mg mL^−1, providing a dose of 2 mg mL^−1 (based on free base concentration). An additional three mice were dosed subcutaneously (SC) administered to each animal via subcutaneous bolus on each animals’ back per facility SOPs using test article formulated in deionised water at 2 mg mL^−1 with a dose volume of 5 mg mL^−1, providing a dose of 10 mg mL^−1. All animals were killed at the last study time point (100% CO2 was introduced into the animal box).
Plasma samples were collected as the following target times after each dose administration: IV Sampling Time points (hours post dosing): 0, 0.083, 0.25, 0.5, 1, 2, 4, 8 and 24. SC Sampling Time points (hours post dosing): 0, 0.25, 0.5, 1, 2, 4, 8 and 24. Approximately 30 μL blood was obtained via submandibular or saphenous vein for the first several time points. For the last time point, samples were collected via cardiac puncture while the mouse was under anaesthesia. All blood samples were transferred into pre-chilled plastic microcentrifuge tubes containing 2 μL of ethylenediaminetetraacetic acid dipotassium salt (K2-EDTA) (0.5 M) as anticoagulant and placed on wet ice until centrifugation. Harvested blood samples were centrifuged within 30 min of collection at 7000 rpm (8546 × g) 4 °C for about 10 min. After centrifugation, plasma was transferred into another pre-labelled and pre-chilled polypropylene microcentrifuge tubes, then quick-frozen over dry ice and stored at −70 ± 10 °C until LC/MSMS analysis.
LC-MS/MS methods for the quantitative determination of the test article in mouse plasma were developed with an internal standard. Benchtop stability of the compound in mouse plasma was determined at mid QC concentrations in triplicate at 0, 2 h at room temperature. The stability was determined using mean peak area ratio of T2/T0 sample. If the mean peak area ratio is within 80%~120%, the test article in the plasma is considered stable for 2 h at room temperature. […] A set of QC samples consists of three concentration levels (low, middle and high). The sample analysis was performed concurrently with a set of calibration standards and two sets of QC samples using the LC-MS/MS method.
Plasma concentration vs. time data from individual animals was analysed by WinNonLin non-compartmental model (Phoenix WinNonlin 6.2.1, Pharsight, Mountain View, CA). Pharmacokinetic parameter C 0, T ½, CL, Vdss, C max, T max, AUC0-last, AUC0-inf, %F, MRT0-last, MRT0-inf and graphs of plasma concentration vs. time profile were derived.

[6] = male, CD1, plasma, 2 mg/kg IV, read-out: Plasma concentration, Mean IV
[7] = male, CD1, plasma, 10 mg/kg SC, read-out: Plasma concentration, Mean SC

Structure (SMILES): CCCCCCCCCCCCCC(=O)N[C@@H](CCCCN)C(=O)N[C@@H](CCCCN)C(=O)N[C@@H](CCCCN)C(=O)N[C@@H](CCCCNC(=O)[C@H]1NC(=O)[C@H]2NC(=O)[C@H](NC(=O)[C@@H]3NC(=O)[C@H](CC(N)=O)NC(=O)[C@H](NC(=O)[C@@H](CC(C)C)NC)[C@H](O)c4ccc(c(Cl)c4)Oc4cc3cc(c4O[C@@H]3O[C@H](CO)[C@@H](O)[C@H](O)[C@H]3O[C@H]3C[C@](C)(N)[C@H](O)[C@H](C)O3)Oc3ccc(cc3Cl)[C@H]2O)c2ccc(O)c(c2)-c2c(O)cc(O)cc21)C(=O)O [Compound 17, nC13CO-KKK-K(Vancomycin)-OH]
- hemolysis at 3 h (Haemolysis assay; 25 µg mL-1): 0.15%
- hemolysis at 3 h (Haemolysis assay; 50 µg mL-1): 0.75%
- hemolysis at 3 h (Haemolysis assay; 100 µg mL-1): 0.65%
- hemolysis at 3 h (Haemolysis assay; 200 µg mL-1): 0.85%
- hemolysis at 3 h (Haemolysis assay; 400 µg mL-1): 0.5%
- hemolysis at 3 h (Haemolysis assay; 800 µg mL-1): 1%
- hemolysis at 3 h (Haemolysis assay; 1600 µg mL-1): 1.55%
- % compound remaining after incubation in 50% human plasma, 0h [1]: 100%
- remaining at 1 h, 20 µM (in vitro): 79%
- remaining at 3 h, 20 µM (in vitro): 79%
- remaining at 6 h, 20 µM (in vitro): 62%
- remaining at 24 h, 20 µM (in vitro): 66%
- Ac2Kaa concentration required to neutralise MIC activity ([2]; ATCC 6633, 48 h): 400 µg/mL
- MIC ([2]; ATCC 6633, 48 h): ≤ 4 ng/mL
- Molar excess of Ac2Kaa ligand required to antagonise antibacterial activity ([2]; [ligand]/[antibiotic], B. subtilis ATCC 6633, 24 h): 29,472
- MIC S. aureus ATCC29213 MSSA, PP ([3]; ATCC 29213): 1 to 2 µg/mL
- MIC S. aureus ATCC29213 MSSA, PS ([3]; ATCC 29213): 1 µg/mL (≈ 0.46 µM)
- MIC S. aureus ATCC29213 MSSA, NBS ([3]; non-binding surface plate): ≤ 0.016 µg/mL
- MIC S. aureus ATCC29213 MSSA, PS+P-80 ([3]; polystyrene plate with 0.002% polysorbate-80): ≤ 0.016 µg/mL

Structure (SMILES): CNC(=O)[C@H](CCCCNC(=O)[C@H]1NC(=O)[C@H]2NC(=O)[C@H](NC(=O)[C@@H]3NC(=O)[C@H](CC(N)=O)NC(=O)[C@H](NC(=O)[C@@H](CC(C)C)NC)[C@H](O)c4ccc(c(Cl)c4)Oc4cc3cc(c4O[C@@H]3O[C@H](CO)[C@@H](O)[C@H](O)[C@H]3O[C@H]3C[C@](C)(N)[C@H](O)[C@H](C)O3)Oc3ccc(cc3Cl)[C@H]2O)c2ccc(O)c(c2)-c2c(O)cc(O)cc21)NC(=O)[C@H](CCCCN)NC(=O)[C@H](CCCCN)NC(=O)[C@H](CCCCNC(=O)c1ccc(Oc2ccccc2)cc1)NC(=O)c1ccc(Oc2ccccc2)cc1 [Compound 24, POB2K-KK-K(Vancomycin)-NHMe]
- % compound remaining after incubation in 50% human plasma, 0h [1]: 100%
- remaining at 1 h, 20 µM (in vitro): 100%
- remaining at 3 h, 20 µM (in vitro): 100%
- remaining at 6 h, 20 µM (in vitro): 106%
- remaining at 24 h, 20 µM (in vitro): 89%
- MIC S. pneumoniae ATCC 700677 MDR ([4]; 5% Survanta): 0.25 µg/mL (≈ 0.106 µM)
- MIC S. pneumoniae ATCC 700677 MDR ([4]; no added Survanta): ≤ 0.003 µg/mL
- level at 5 min ([5]; male, CD1, plasma, 2 mg/kg IV, 5 min, n=3, read-out: Plasma concentration, Mean IV): 13800 ng/mL
- level at […] [5, 6]: 10000 ng/mL
- level at 0.5 h [5, 6]: 5230 ng/mL
- level at 1 h [5, 6]: 3010 ng/mL
- level at 2 h [5, 6]: 1210 ng/mL
- level at 4 h [5, 6]: 285 ng/mL
- level at 8 h [5, 6]: 81.9 ng/mL
- level at […] ([5]; male, CD1, plasma, 10 mg/kg SC, n=3, read-out: Plasma concentration, Mean SC): 227 ng/mL
- level at 0.5 h [5, 7]: 548 ng/mL
- level at 1 h [5, 7]: 1400 ng/mL
- level at 2 h [5, 7]: 1920 ng/mL
- level at 4 h [5, 7]: 2350 ng/mL
- level at 8 h [5, 7]: 845 ng/mL
- level at 24 h ([5]; male, CD1, plasma, 10 mg/kg SC, 24.0 h, read-out: Plasma concentration, Mean SC): 243 ng/mL
- AUC0-inf/AUC0-last ([5]; IV 2 mg kg-1): 101%
- AUC0-inf/AUC0-last ([5]; SC 10 mg kg-1): 113%
- Tlast ([5]; SC 10 mg kg-1): 24 h
- bioavailability ([5]; plasma, subcutaneous, SC 10 mg kg-1 vs IV 2 mg kg-1): 36.3%
- AUC(0-inf) ([5]; plasma, IV 2 mg kg-1): 11200 ng·h/mL
- AUC(0-t) ([5]; plasma, IV 2 mg kg-1): 11000 ng·h/mL
- C0 ([5]; plasma, IV 2 mg kg-1): 16300 ng/mL
- clearance ([5]; plasma, IV 2 mg kg-1): 2.98 mL/min/kg
- half-life ([5]; plasma, IV 2 mg kg-1): 137 min
- MRT inf ([5]; plasma, IV 2 mg kg-1): 1.39 h
- MRT last ([5]; plasma, IV 2 mg kg-1): 1.24 h
- Vd ([5]; plasma, IV 2 mg kg-1, read-out: Vdss): 0.248 L/kg
- AUC(0-inf) ([5]; plasma, SC 10 mg kg-1): 22600 ng·h/mL
- AUC(0-t) ([5]; plasma, SC 10 mg kg-1): 20000 ng·h/mL
- Cmax ([5]; plasma, SC 10 mg kg-1): 2350 ng/mL
- Tmax ([5]; plasma, SC 10 mg kg-1): 4 h
- half-life ([5]; plasma, SC 10 mg kg-1): 418 min
- MRT inf ([5]; plasma, SC 10 mg kg-1): 11 h
- MRT last ([5]; plasma, SC 10 mg kg-1): 7.99 h
- MIC MSSA ([3]; ATCC 29213): ≤0.016 µg/mL
- MIC S. aureus ATCC29213 MSSA, PP ([3]; ATCC 29213): 1 µg/mL (≈ 0.422 µM)
- MIC S. aureus ATCC29213 MSSA, PS ([3]; ATCC 29213): 2 µg/mL (≈ 0.845 µM)
- MIC S. aureus ATCC29213 MSSA, PS+P-80 ([3]; ATCC 29213): 0.031 µg/mL (≈ 0.0131 µM)
